The text below walks through data of paper doi:10.1101/466938v1.

As usually defined, the Km is the concentration of substrate that gives half-maximal velocity. As a reminder, the kcat is the maximal rate divided by the concentration of active sites.

Substrate in series [1]: Cc1cn([C@H]2C[C@H](O)[C@@H](COP(=O)(O)O)O2)c(=O)[nH]c1=O
Kind of series: NADH-coupled assay. In kind it is biochemical, Candida albicans. The conditions noted are these: 500 μM ATP, 100 mM Tris-HCl, 100 mM KCl, 10 mM MgCl2.

Substrate in series [2]: Cc1cn([C@H]2C[C@H](O)[C@@H](COP(=O)(O)O)O2)c(=O)[nH]c1=O
As to the kind of experiment: NADH-coupled assay. It counts as biochemical, Homo sapiens. Particulars: 500 μM ATP, 100 mM Tris-HCl, 100 mM KCl, 10 mM MgCl2.

B1: CaTMPK (Candida albicans SC5314) (protein)
chain: MARGQLILIEGLDRSGKSTQASILSTKLSPSKLIKFPDRSTPIGKLINEYLTNKSFTLSDQAAHLLFSANRWELSQQIQDLLNQGYFIILDRYIYSGIAYTLAKNDFHDETISQGKNKQQLNNIDWLLSPDKGLPKPDLTLFLTLDLEEISKRKGWGDERYELQQFQAKVKQCFLEILDTNKDPTIRIVDVGGKTIDQVTTQLWEIIETNKNHELINDSIQFIT
For the protein B1, in “NADH-coupled assay [1]”, the Km was 24.1 ± 3.2 µM and the kcat was determined as 5.347 ± 0.118 s⁻¹.

B2: hTMPK (Homo sapiens) (protein)
chain: MAARRGALIVLEGVDRAGKSTQSRKLVEALCAAGHRAELLRFPERSTEIGKLLSSYLQKKSDVEDHSVHLLFSANRWEQVPLIKEKLSQGVTLVVDRYAFSGVAFTGAKENFSLDWCKQPDVGLPKPDLVLFLQLQLADAAKRGAFGHERYENGAFQERALRCFHQLMKDTTLNWKMVDASKSIEAVHEDIRVLSEDAIRTATEKPLGELWK
For the protein B2, in “NADH-coupled assay [2]”, the Michaelis-Menten constant (Km) was determined as 16.3 ± 2.3 µM and the kcat was 0.352 ± 0.01 s⁻¹.
